In US20220380463A1 (Adimab, published 2022):
Numbering of substitutions follows the chain as printed.

T1: Cynomolgus CD3εδ Fc heterodimer (Cy CD3ε Fc / CD3δ Fc-HIS) (cynomolgus, UniProt Q95LI8 22-100)
T1 chain 1: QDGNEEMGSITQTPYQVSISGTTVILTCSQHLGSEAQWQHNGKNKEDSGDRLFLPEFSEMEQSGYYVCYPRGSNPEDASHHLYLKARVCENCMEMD
T1 chain 2: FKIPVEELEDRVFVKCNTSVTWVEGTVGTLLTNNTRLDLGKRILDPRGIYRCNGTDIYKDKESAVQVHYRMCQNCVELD

B1: SAD10318_P03_A08 (ADI-57283) (antibody, V domains shown)
VH: QVQLVQSGAEVKKPGASVKVSCKASGFNIKDYYMHWVRQAPGQRLEWMGWIDLENANTIYDAKFQGRVTITRDTSASTAYMELSSLRSEDTAVYYCARDAYGRYHYDHWGQGTLVTVSS
VL: DIVMTQSPDSLAVSLGERATINCKSSQSLLNARTGHNHLAWYQQKPGQPPKLLIYWASTRESGVPDRFSGSGSGTDFTLTISSLQAEDVAVYYCKQSYSRRTFGGGTKVEIK
notes: IgG; also called Ab195
B2: SAD10318_P03_B08 (ADI-57284) (antibody, V domains shown)
VH: B1 VH with A100H, G102H, H105F, H108V
VL: B1 VL with R33H, H38Y, K95H, R100H
notes: IgG; also called Ab196
B3: SAD10318_P04_G11 (ADI-57294) (antibody, V domains shown)
VH: B1 VH with T74A, G102H, H108V
VL: B1 VL with R33H, H36K, Y98H
notes: IgG; also called Ab222
B4: SAD10318_P04_H12 (ADI-57297) (antibody, V domains shown)
VH: B1 VH with Y101H, H105F, Y106H, H108V
VL: B1 VL with R33H, H36K, K95H, R100H
notes: IgG; also called Ab228
B5: SAD10318_P04_G12 (ADI-57296) (antibody, V domains shown)
VH: B1 VH with R103H, H108V
VL: B1 VL with R33H, H36K
notes: IgG; also called Ab227
B6: SAD10318_P04_E11 (ADI-57292) (antibody, V domains shown)
VH: B1 VH with R103H, H105F
VL: B1 VL with K95H, R100H
notes: IgG; also called Ab220
B7: SAD10318_P04_E10 (ADI-57288) (antibody, V domains shown)
VH: B1 VH
VL: DIVMTQSPDSLAVSLGERATINCKSSQSLLNARTGHNYLAWYQQKPGQPPKLLISGSTRESGVPDRFSGSGSGTDFTLTISSLQAEDVAVYYCHQSYHRRTFGGGTKVEIK
notes: IgG; also called Ab212
B8: SAD10318_P04_F10 (ADI-57289) (antibody, V domains shown)
VH: B1 VH with G102H, H108V
VL: B1 VL with G35H, H36K
notes: IgG; also called Ab213
B9: SAD10319_P01_A01 (ADI-48619) (antibody, V domains shown)
VH: QVQLVQSGAEVKKPGASVKVSCKASGYTFASYAMHWVRQAPGQRLEWMGWINPDTGNTVYSQKFQGRVTITRDTSASTAYMELSSLRSEDTAVYYCARDAYHHYFYDVWGQGTLVTVSS
VL: B1 VL with H36K, H38Y
notes: IgG; also called Ab229
B10: SAD10319_P01_D01 (ADI-48622) (antibody, V domains shown)
VH: B9 VH with A30K, A33D, N52D, P53A, D54G, V59K, H102G, H103R
VL: B1 VL with H36K, H38Y
notes: IgG; also called Ab231
B11: SAD10318_P04_H10 (ADI-57290) (antibody, V domains shown)
VH: B1 VH with A100H, R103H, H105F, H108V
VL: B1 VL with R33H, H36K
notes: IgG; also called Ab214
B12: SAD10318_P03_G08 (ADI-57285) (antibody, V domains shown)
VH: B1 VH with A100H, G102H, H105F, H108V
VL: B1 VL with N31H, H36K, Y98H, R100H
notes: IgG; also called Ab201
B13: SAD10318_P03_G09 (ADI-57287) (antibody, V domains shown)
VH: B1 VH with A100H, R103H, H105F, H108V
VL: B1 VL with R33H, H38Y, K95H, R100H
notes: IgG; also called Ab209
B14: SAD10318_P04_F11 (ADI-57293) (antibody, V domains shown)
VH: B1 VH with I29T, Y101H, H108V
VL: B1 VL
notes: IgG; also called Ab221
B15: SAD10319_P01_C01 (ADI-48621 and ADI-48636) (antibody, V domains shown)
VH: B9 VH with A30T, S31D, A33D, N52D, P53A, D54G, N57L, V59K, A100H, H102G
VL: B1 VL with H36K, H38Y
notes: IgG; also called Ab230
B16: SAD10318_P04_D10 (ADI-48613) (antibody, V domains shown)
VH: B1 VH with R103H, H108V
VL: B1 VL with N31H, H36K
notes: IgG; also called Ab211
B17: SAD10318_P03_F09 (ADI-57286) (antibody, V domains shown)
VH: B1 VH with R103H, H108V
VL: B1 VL with R33H, T34P, H36K, H38Y, K95H, S99H
notes: IgG; also called Ab208

Molecular target: T1, Cynomolgus CD3εδ Fc heterodimer (Cy …)
Experiment: BLI (Octet), IgG on AHC sensor, pH 6.0

| koff | Binder |
| --- | --- |
| 0.006 s⁻¹ | B1 |
| 0.00303 s⁻¹ | B2 |
| 0.00215 s⁻¹ | B3 |
| 0.00254 s⁻¹ | B4 |
| 0.0025 s⁻¹ | B5 |
| 0.00256 s⁻¹ | B6 |
| 0.00245 s⁻¹ | B7 |
| 0.00436 s⁻¹ | B8 |
| 0.0328 s⁻¹ | B9 |
| 0.00946 s⁻¹ | B10 |
| 0.00284 s⁻¹ | B11 |
| 0.00544 s⁻¹ | B12 |
| 0.00559 s⁻¹ | B13 |
| 0.00183 s⁻¹ | B14 |
| 0.00402 s⁻¹ | B15 |
| 0.00251 s⁻¹ | B16 |
| 0.00139 s⁻¹ | B17 |
